Values of other authors as cited in paper PMC8727504.

Target: sMMOH (Methylosinus trichosporium) (UniProt P27353)
Assay: competition

In the case of MMOB (from UniProt P27356), the Kd is listed as < 100 nM.
